# According to patent US20200283478A1 (Genentech, published 2020):
# Read-outs that look alike come from different tables or passages of the source. Bridge positions count the residues as written; N and C are the ends. Square brackets hold non-standard residues; d marks the D form. Ends that are not written are not given here. hArg = N=C(N)NCCCC[C@H](N)C(=O)O
# What was measured:
# PCSK9Δhelix [1] = target: T1, PCSK9Δhelix (human, Chemically biotinylated in the phage ELISAs; the site is not given.); experiment: phage competition ELISA: synthetic peptide against its phage-displayed counterpart
# T1 construct: construct M1-Q692 with engineered TEV site, cleaved by TEV; also called His-PCSK9Δhelix; open groove PCSK9Δhelix
# T1 sequence (prodomain, as listed by the source mutant limits assumed, chain 1 of 2): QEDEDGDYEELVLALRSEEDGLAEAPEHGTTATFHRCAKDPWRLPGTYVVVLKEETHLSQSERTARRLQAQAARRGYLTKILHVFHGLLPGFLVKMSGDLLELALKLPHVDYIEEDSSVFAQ
# T1 sequence (chain, as listed by the source mutant limits assumed, chain 2 of 2): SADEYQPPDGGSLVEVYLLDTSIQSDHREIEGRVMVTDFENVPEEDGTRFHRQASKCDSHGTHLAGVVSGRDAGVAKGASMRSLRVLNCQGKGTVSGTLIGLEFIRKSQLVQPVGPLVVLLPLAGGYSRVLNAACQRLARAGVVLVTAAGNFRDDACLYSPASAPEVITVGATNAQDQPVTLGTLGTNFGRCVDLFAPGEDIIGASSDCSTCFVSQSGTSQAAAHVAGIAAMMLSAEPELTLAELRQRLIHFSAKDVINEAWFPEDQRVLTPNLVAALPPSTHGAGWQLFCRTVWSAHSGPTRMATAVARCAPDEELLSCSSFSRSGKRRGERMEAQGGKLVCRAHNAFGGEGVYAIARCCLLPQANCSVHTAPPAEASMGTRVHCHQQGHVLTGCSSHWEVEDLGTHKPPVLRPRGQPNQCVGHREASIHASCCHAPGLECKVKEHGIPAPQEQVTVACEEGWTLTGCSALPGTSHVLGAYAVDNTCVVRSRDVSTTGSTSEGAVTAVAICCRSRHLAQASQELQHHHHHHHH
# PCSK9Δhelix [2] = target: T1, PCSK9Δhelix; experiment: phage competition ELISA against phage-displayed Pep2-8 (Φpep2-8)
# PCSK9Δhelix [3] = target: T1, PCSK9Δhelix; experiment: phage competition ELISA against phage-displayed K9gvpep4 (ΦK9gvpep4)
# [4] = target: T2, PCSK9 (proprotein convertase subtilisin/kexin type 9), His-tagged, full-length (human, UniProt Q8NBP7 31-692); experiment: TR-FRET competition; competitor EGF(A)-Fc binding to His-PCSK9
# T2 construct: Captured by the His tag (SPR Methods 1 and 2), amine-coupled (Method 3), or His-tagged in TR-FRET; also called His-PCSK9
# T2 sequence (Q8NBP7 31-692 limits assumed): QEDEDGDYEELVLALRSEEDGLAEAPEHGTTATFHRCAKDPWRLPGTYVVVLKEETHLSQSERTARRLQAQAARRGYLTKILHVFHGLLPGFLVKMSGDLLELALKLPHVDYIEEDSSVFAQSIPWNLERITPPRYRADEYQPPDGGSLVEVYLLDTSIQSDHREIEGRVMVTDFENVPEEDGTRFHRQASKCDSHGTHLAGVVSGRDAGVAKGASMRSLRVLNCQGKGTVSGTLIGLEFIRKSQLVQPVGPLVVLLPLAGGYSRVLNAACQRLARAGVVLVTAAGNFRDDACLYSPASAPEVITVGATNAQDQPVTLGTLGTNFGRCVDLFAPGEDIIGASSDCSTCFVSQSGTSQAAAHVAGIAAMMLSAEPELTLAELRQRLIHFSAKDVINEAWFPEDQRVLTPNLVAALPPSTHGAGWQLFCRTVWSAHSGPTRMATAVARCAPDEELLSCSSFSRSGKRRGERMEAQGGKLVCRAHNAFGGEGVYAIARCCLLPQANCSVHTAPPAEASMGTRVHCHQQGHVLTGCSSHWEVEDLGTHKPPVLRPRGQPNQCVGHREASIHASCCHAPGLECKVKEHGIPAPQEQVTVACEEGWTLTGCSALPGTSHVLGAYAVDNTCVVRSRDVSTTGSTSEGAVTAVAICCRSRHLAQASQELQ
# PCSK9Δhelix [5] = target: T3, PCSK9Δhelix (human, UniProt Q8NBP7 31-152; Q8NBP7 168-692); experiment: TR-FRET competition; competitor Ab20 binding to His-PCSK9Δhelix
# T3 construct: Made by TEV cleavage of human PCSK9 M1-Q692 with an engineered TEV site; The new N-terminus of the catalytic domain is S-A168; also called His-PCSK9Δhelix; PCSK9 lacking the P' helix
# T3 sequence (Q8NBP7 31-152, stated change not applied, chain 1 of 2): as the sequence (prodomain, as listed by the source mutant limits assumed, chain 1 of 2) above
# T3 sequence (Q8NBP7 other isoform, or with tags, fused parts or gaps mutant, chain 2 of 2): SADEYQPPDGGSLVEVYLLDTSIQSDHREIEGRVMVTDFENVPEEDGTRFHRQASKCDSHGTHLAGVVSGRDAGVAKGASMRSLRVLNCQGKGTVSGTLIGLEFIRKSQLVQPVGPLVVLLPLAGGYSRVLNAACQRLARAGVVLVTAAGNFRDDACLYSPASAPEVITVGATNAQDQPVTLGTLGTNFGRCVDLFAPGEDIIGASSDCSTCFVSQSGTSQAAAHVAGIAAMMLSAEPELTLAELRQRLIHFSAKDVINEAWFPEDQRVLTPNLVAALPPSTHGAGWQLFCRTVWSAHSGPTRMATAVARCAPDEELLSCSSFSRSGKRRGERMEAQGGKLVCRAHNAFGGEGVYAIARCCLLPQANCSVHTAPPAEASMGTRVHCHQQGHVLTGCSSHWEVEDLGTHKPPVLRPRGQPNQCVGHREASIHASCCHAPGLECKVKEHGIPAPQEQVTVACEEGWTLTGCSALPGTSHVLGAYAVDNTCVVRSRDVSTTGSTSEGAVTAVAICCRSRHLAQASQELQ
# [6] = target: T2, PCSK9 (proprotein convertase …); experiment: SPR, Method 1 (Biacore T100, His-tagged target captured on NTA chip)
# PCSK9Δhelix [7] = target: T3, PCSK9Δhelix; experiment: as above
# [8] = target: T2, PCSK9 (proprotein convertase …); experiment: TR-FRET competition; competitor EGF(A)-Fc binding to His-PCSK9; remark: listed apart in the source
# PCSK9Δhelix [9] = target: T3, PCSK9Δhelix; experiment: TR-FRET competition; competitor Ab20 binding to His-PCSK9Δhelix; remark: listed apart in the source
# [10] = target: T4, PCSK9Δhelix (human PCSK9 lacking the P' helix, His-tagged) (human, UniProt Q8NBP7 31-152; Q8NBP7 168-692); experiment: SPR (Biacore), His-tagged PCSK9Δhelix captured on NTA chip
# T4 construct: Construct M1-Q692 with an engineered TEV site (Y166 and R167 deleted, ENLYFQS inserted between R165 and A168); also called His-PCSK9Δhelix; C-terminal (His)8-tagged PCSK9Δhelix
# T4 sequence (Q8NBP7 31-152, stated change not applied, chain 1 of 2): as the sequence (prodomain, as listed by the source mutant limits assumed, chain 1 of 2) above
# T4 sequence (Q8NBP7 other isoform, or with tags, fused parts or gaps mutant, chain 2 of 2): as the sequence (chain, as listed by the source mutant limits assumed, chain 2 of 2) above
# [11] = target: T5, His-tagged, full-length human PCSK9 (proprotein convertase subtilisin/kexin type 9) (human, UniProt A8T644 31-152; Q8NBP7 153-692); experiment: TR-FRET competition; His-PCSK9 with LDLR-Fc as competitor ligand
# T5 construct: also called His-PCSK9; C-terminal (His)8-tagged PCSK9
# T5 sequence (A8T644 31-152, chain 1 of 2): as the sequence (prodomain, as listed by the source mutant limits assumed, chain 1 of 2) above
# T5 sequence (A8T644 other isoform, or with tags, fused parts or gaps, chain 2 of 2): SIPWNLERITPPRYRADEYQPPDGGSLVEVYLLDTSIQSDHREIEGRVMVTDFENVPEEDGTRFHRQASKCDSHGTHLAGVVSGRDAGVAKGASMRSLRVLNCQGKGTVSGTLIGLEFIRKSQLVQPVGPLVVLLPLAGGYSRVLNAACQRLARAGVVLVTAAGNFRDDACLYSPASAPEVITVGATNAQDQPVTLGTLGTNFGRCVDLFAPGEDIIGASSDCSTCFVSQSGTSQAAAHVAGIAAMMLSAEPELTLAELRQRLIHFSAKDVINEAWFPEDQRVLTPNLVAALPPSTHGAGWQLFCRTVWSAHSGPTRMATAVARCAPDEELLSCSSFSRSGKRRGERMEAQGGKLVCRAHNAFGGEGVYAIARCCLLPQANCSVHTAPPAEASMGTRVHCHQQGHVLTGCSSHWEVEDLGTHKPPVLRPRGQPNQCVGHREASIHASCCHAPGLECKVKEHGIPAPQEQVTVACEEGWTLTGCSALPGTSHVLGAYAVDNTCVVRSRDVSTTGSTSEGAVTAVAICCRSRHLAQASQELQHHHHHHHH
# [12] = target: T5, His-tagged, full-length human PCSK9 …; experiment: TR-FRET competition; His-PCSK9 with EGF(A)-Fc as competitor ligand
# [13] = target: T4, PCSK9Δhelix (human PCSK9 lacking the P' …); experiment: TR-FRET competition; His-PCSK9Δhelix with Ab20 as competitor ligand
# [14] = target: T4, PCSK9Δhelix (human PCSK9 lacking the P' …); experiment: as above; remark: listed apart in the source
Binder,Kd [6] [nM],Kd (PCSK9Δhelix [7]) [nM],IC50 [11] [nM],IC50 [12] [nM],IC50 [14] [nM],further results
"SGCRLPWNLQRIGLPC (not fully specified (bridges); cysteine pairing not given here, synthetic; Compound 19 = Pep2-8_K9gvpep4, the two N-terminal residues of K9gvpep4 being the SG of the GSG linker) [K9gvpep4]",–,–,–,–,–,IC50 (PCSK9Δhelix [1]): 544 nM
SGDLMPWNLVRIGLLR (synthetic; Compound 20 = Pep2-8_K9gvpep7) [K9gvpep7],–,–,–,–,–,IC50 (PCSK9Δhelix [1]): 914 nM
"Ac-TVFTSWEEYLDWVGSGDLMPWNLVRIGLLR-NH2 (also called Pep2-8p7; Pep2-8_K9gvpep7) [Compound 20, listing 1 of 2 here]",–,–,–,–,–,IC50 (PCSK9Δhelix [2]): 1.75 nM; IC50 (PCSK9Δhelix [3]): 5.99 nM
"Ac-TVFTSWEEYLDWVGSGCRLPWNLQRIGLPC-NH2 (disulfide 17-30 (inferred), Two Cys, disulfide-cyclized; also called Pep2-8p4; Pep2-8_K9gvpep4) [Compound 19]",2.07,0.0989,–,–,–,IC50 [4]: 9 nM; IC50 (PCSK9Δhelix [5]): 2 nM
"Ac-TVFTSWEEYLDWVGSGDLMPWNLVRIGLLR-NH2 (also called Pep2-8p7; Pep2-8_K9gvpep7) [Compound 20, listing 2 of 2 here]",5.56,0.366,–,–,–,IC50 [8]: 37 nM; IC50 (PCSK9Δhelix [9]): 1 nM
"H-SGCFIPWNLQRIGLLC-NH2 (disulfide 3-16 (inferred), Two Cys, disulfide-cyclized) [Compound 26]",29000,802,–,–,–,–
SGDLMPWNLVRIGLLR (Free N- and C-termini as printed) [Compound 28],46100,856,–,–,–,–
Ac-WNLV[hArg]IGLLR-NH2 [Compound 192: Ac-WNLV(homoR)IGLLR-NH2],–,–,> 50000,> 50000,5550,Kd [10]: 1000 nM; IC50 [13]: 5600 nM
Ac-DSYPGWNLV[hArg]IGLLR-NH2 (SMILES CC[C@H](C)[C@H](NC(=O)[C@H](CCCCNC(=N)N)NC(=O)[C@@H](NC(=O)[C@H](CC(C)C)NC(=O)[C@H](CC(N)=O)NC(=O)[C@H](Cc1c[nH]c2ccccc12)NC(=O)CNC(=O)[C@@H]1CCCN1C(=O)[C@H](Cc1ccc(O)cc1)NC(=O)[C@H](CO)NC(=O)[C@H](CC(=O)O)NC(C)=O)C(C)C)C(=O)NCC(=O)N[C@@H](CC(C)C)C(=O)N[C@@H](CC(C)C)C(=O)N[C@@H](CCCNC(=N)N)C(N)=O) [Compound 230: Ac-DSYPGWNLV(homoR)IGLLR-NH2],–,–,> 50000,24200,2420,–
Ac-SFAFPGWNLV[hArg]IGLLR-NH2 (SMILES CC[C@H](C)[C@H](NC(=O)[C@H](CCCCNC(=N)N)NC(=O)[C@@H](NC(=O)[C@H](CC(C)C)NC(=O)[C@H](CC(N)=O)NC(=O)[C@H](Cc1c[nH]c2ccccc12)NC(=O)CNC(=O)[C@@H]1CCCN1C(=O)[C@H](Cc1ccccc1)NC(=O)[C@H](C)NC(=O)[C@H](Cc1ccccc1)NC(=O)[C@H](CO)NC(C)=O)C(C)C)C(=O)NCC(=O)N[C@@H](CC(C)C)C(=O)N[C@@H](CC(C)C)C(=O)N[C@@H](CCCNC(=N)N)C(N)=O) [Compound 228: Ac-SFAFPGWNLV(homoR)IGLLR-NH2],–,–,30400,13200,1370,–
Ac-MESFPGWNLV[hArg]IGLLR-NH2 (SMILES CC[C@H](C)[C@H](NC(=O)[C@H](CCCCNC(=N)N)NC(=O)[C@@H](NC(=O)[C@H](CC(C)C)NC(=O)[C@H](CC(N)=O)NC(=O)[C@H](Cc1c[nH]c2ccccc12)NC(=O)CNC(=O)[C@@H]1CCCN1C(=O)[C@H](Cc1ccccc1)NC(=O)[C@H](CO)NC(=O)[C@H](CCC(=O)O)NC(=O)[C@H](CCSC)NC(C)=O)C(C)C)C(=O)NCC(=O)N[C@@H](CC(C)C)C(=O)N[C@@H](CC(C)C)C(=O)N[C@@H](CCCNC(=N)N)C(N)=O) [Compound 229: Ac-MESFPGWNLV(homoR)IGLLR-NH2],–,–,25000,8300,840,–
